Peptide text beside a SMILES is read from it.

The target in assay [1] is T1, TGR26 (Rattus norvegicus, UniProt Q56UD9).
T1 construct: expressed in transfected cells; whole cells in A1, membrane fraction in A2 and A3
T1 sequence (Q56UD9 1-329): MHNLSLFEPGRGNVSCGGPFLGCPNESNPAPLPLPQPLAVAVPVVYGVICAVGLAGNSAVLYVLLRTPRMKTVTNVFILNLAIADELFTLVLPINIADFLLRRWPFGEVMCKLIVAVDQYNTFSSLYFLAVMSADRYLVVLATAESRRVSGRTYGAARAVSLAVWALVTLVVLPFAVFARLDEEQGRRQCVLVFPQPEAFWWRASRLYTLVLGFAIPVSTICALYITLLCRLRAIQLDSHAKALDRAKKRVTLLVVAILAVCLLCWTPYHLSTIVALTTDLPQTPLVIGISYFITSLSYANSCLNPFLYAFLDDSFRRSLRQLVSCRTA
As to the kind of experiment: Receptor binding using [125I-Tyr10]-hGPR8L (1-23) and membrane fraction of TGR26 expressing CHO cells. As to conditions: for IC50: membrane fraction of TGR26 expressing CHO cells, [125I-Tyr10]-hGPR8L (1-23), method of Example 8; for inhibition for the specific binding of [125I-Tyr10]-hGPR8L (1-23): membrane fraction of TGR26 expressing cells, in words. As for the experimental part:
Using [^125I-Tyr^10]-hGPR8L (1-23) prepared by the method described in Reference Example 15 and a cell membrane fraction prepared from TGR26 expressing cells as described in Example 6, a receptor binding assay was carried out as follows.
Cell membrane fraction prepared from TGR26 expressing cells was diluted to various concentration with assay buffer (25 mM Tris-HCl, 5 mM EDTA, 0.05% CHAPS (3-[(3-Cholamidopropyl) Dimethyl-Ammonio]-1-Propanesulfonate), 0.1% BSA, 0.5 mM PMSF, 1 μg/ml Pepstatin, 20 μg/ml Leupeptin, 4 μg/ml E-64, pH 7.4), and 200 μl each of the diluent was dispensed into polypropilene test tube (Falcon 2053). In order to determine an amount of maximum binding, 2 μl of DMSO and 2 μl of 7 nM [^125I-Tyr^10]-hGPR8L (1-23) were added to the membrane fraction solution. Further, in order to determine a non-specific binding, 2 μl of 100 μM hGPR8L (1-23)/DMSO solution and 2 μl of 7 nM [^125I-Tyr^10]-hGPR8L (1-23) were added to the membrane fraction solution. The reaction was done at 25° C. for 75 minutes, and the reaction mixture was filtered by suction filtration using Whatman glassfilter (GF-F) treated with polyethyleneimine. In addition, the filter was washed twice with 1.5 ml of washing buffer (25 mM Tris-HCl, 5 mM EDTA, 0.05% CHAPS, 0.1% BSA, pH 7.4). After filtration, a radioactivity remaining on the filter was counted using γ-counter, and an amount of specific binding was estimated by subtracting an amount of non-specific binding from an amount of maximum binding.
Where the concentration of membrane fraction was set to 3 μg/ml, an inhibition for the specific binding of [125I-Tyr^10]-hGPR8L (1-23) to the membrane fraction of TGR26 expressing cells by hGPR8L (1-23) and hGPR8L (1-30) was investigated.
A receptor binding activity of human- and porcine-homologue derivatives of GPR8 ligand peptide obtained in the reference examples was measured using a membrane fraction of TGR26 expressing CHO cells and [^125I-Tyr^10]-hGPR8L (1-23) by the method described in Example 8. The receptor binding activity is represented by concentration of 50% inhibition for binding (IC50 value).

In assay [2] the target is T1, TGR26. As to the kind of experiment: GTPγS binding activity using a membrane fraction of TGR26 expressing CHO cells. The format is biochemical. The following applies: various concentrations. As for the experimental part: Promoting activity for [^35S]-guanosine 5′-(γ-thio) triphosphate (GTPγS) binding to a membrane fraction of TGR26 expressing cells was assayed in accordance with the following method.
To 1×10^8 of TGR26 expressing CHO cells, 10 ml of homogenating buffer (10 mM NaHCO3, 5 mM EDTA, 0.5 mM PMSF (phenylmethylsulfonyl fluoride), 1 μg/ml Pepstatin, 4 μg/ml E-64, 20 μg/ml Leupeptin) was added, and the cells were disrupted using Polytron (12,000 rpm, 1 minute). Supernatant was obtained from the disrupted cell suspension by centrifugation (1,000 g, 15 minutes). In addition, the supernatant was ultracentrifuged (Beckman Type 30 rotor, 30,000 rpm, 1 hour), and precipitate obtained was kept as a membrane fraction of TGR26 expressing CHO cells.
The membrane fraction of TGR26 expressing CHO cells was diluted with membrane dilution buffer (50 mM Tris HCl buffer (pH 7.4), 5 mM MgCl2, 150 mM NaCl, 1 μM GDP, 0.1% BSA) to prepare a cell membrane fraction solution for assay at 30 μg/ml of protein concentration. To 200 μl of membrane fraction solution for assay, 2 μl of 50 nM [^35S]-guanosine 5′-(γ-thio) triphosphate (NEN) and 2 μl of sample/DMSO solution having an appropriate concentration were added. Then the mixture was incubated at 25° C. for one hour. The mixture was filtrated, and further the filter was washed twice with 1.5 ml of washing buffer (50 mM Tris HCl buffer (pH 7.4), 5 mM MgCl2, 1 mM EDTA, 0.1% BSA). Finally, a radioactivity on the filter was determined by liquid scintillation counter.
Various concentration of hGPR8L (1-23) or hGPR8L (1-30) was mixed with a membrane fraction of the TGR26 expressing cell in accordance with the method described in Example 6, and a promoting activity of GTPγS binding was assayed.
(In general: Binding of GTPγS marks nucleotide exchange on a G protein.)

For assay [3], the target named is T1, TGR26. As to the kind of experiment: Inhibition of intracellular cAMP production using TGR26 expressing CHO cells. The format is cell-based. The following applies: 2 μM forskolin, various concentrations. As for the experimental part: TGR26 expressing CHO cells prepared in Example 3 were seeded on 24-well plate at 5×10^4 cells/well and cultivated for 48 hours. The cells were washed with MEMα buffer (pH 7.4) containing 0.2 mM 3-isobutyl-methylxanthine, 0.05% BSA (bovine serum albumine) and 20 mM HEPES [hereafter, MEMα buffer (pH 7.4) containing 0.2 mM 3-isobutyl-methylxanthine, 0.05% BSA (bovine serum albumine) and 20 mM HEPES may be referred to as reaction buffer]. Then, 0.5 ml of the reaction buffer was added to the cells and the suspension was incubated for 30 minutes in the incubator. After removal of the reaction buffer and newly adding 0.25 ml of the reaction buffer to the cells, an appropriate concentration of sample in DMSO solution and 0.25 ml of the reaction buffer containing 2 μM forskolin were added to the cells and the mixture was reacted at 37° C. for 30 minutes. For termination of the reaction, 100 μl of 20% perchloric acid was added. Subsequently, the mixture was stood on ice for an hour to extract intracellular cAMP. The cAMP level in the extract was measured using the cAMP EIA Kit (Amersham Pharmacia Biotech).
The human homologue of GPR8 ligand peptide consisting of 23 residues represented by […], which was obtained in Reference Example 12 (hereafter, sometimes referred to as hGPR8L (1-23)), or the human homologue of GPR8 ligand peptide consisting of 30 residues represented by […], which was obtained in Reference Example 13 (hereafter, sometimes referred to as hGPR8L (1-30)) was administered at various concentrations to […] TGR26 expressing CHO cells by the method described in Example 4, and an inhibiting activity of intracellular cAMP production was measured.
In the figure, when an amount subtracted intracellular cAMP level with the reaction buffer from intracellular cAMP level with the reaction buffer containing forskolin is indicated as 100%, the inhibiting activity of cAMP synthesis is indicated as an amount subtracted intracellular cAMP level with hGPR8L (1-23) or hGPR8L (1-30) from intracellular cAMP level with the reaction buffer by representation of percentage (%).

For `CSCC[C@H](NC(=O)[C@H](CC(C)C)NC(=O)[C@H](CC(C)C)NC(=O)CNC(=O)[C@H](C)NC(=O)[C@H](C)NC(=O)[C@H](CCCNC(=N)N)NC(=O)CNC(=O)[C@@H](NC(=O)[C@@H](NC(=O)[C@H](Cc1c[nH]cn1)NC(=O)[C@H](Cc1ccc(O)cc1)NC(=O)[C@H](CCCNC(=N)N)NC(=O)[C@@H]1CCCN1C(=O)[C@H](CO)NC(=O)[C@H](C)NC(=O)[C@@H](NC(=O)[C@@H](N)Cc1c[nH]cn1)C(C)C)[C@@H](C)O)C(C)C)C(=O)NCC(=O)N[C@@H](CC(C)C)C(=O)O` [hGPR8L (4-23), His-Val-Ala-Ser-Pro-Arg-Tyr -His-Thr-Val-Gly-Arg-Ala-Ala-Gly-Leu-Leu-Met-Gly-Leu] (H-HVASPRYHTVGRAAGLLMGL-OH; C-terminus assumed), the half-inhibitory concentration (IC50) (as a rule, the concentration that inhibits the measured activity by half) on TGR26 [1] was found to be 2000 nM. This lies in the single-digit micromolar range.

With `CSCC[C@H](NC(=O)[C@H](CC(C)C)NC(=O)[C@H](CC(C)C)NC(=O)CNC(=O)[C@H](C)NC(=O)[C@H](C)NC(=O)[C@H](CCCNC(=N)N)NC(=O)CNC(=O)[C@@H](NC(=O)[C@@H](NC(=O)[C@H](Cc1c[nH]cn1)NC(=O)[C@H](Cc1ccc(O)cc1)NC(=O)[C@@H](N)CCCNC(=N)N)[C@@H](C)O)C(C)C)C(=O)NCC(=O)N[C@@H](CC(C)C)C(=O)O` [hGPRBL (9-23), Arg-Tyr-His-Thr-Val-Gly-Arg -Ala-Ala-Gly-Leu-Leu-Met-Gly-Leu] (H-RYHTVGRAAGLLMGL-OH; C-terminus assumed), the IC50 at TGR26 [1] is 2500 nM. The IC50 values of the last two molecules are within 1.5-fold of each other.

Regarding `CSCC[C@H](NC(=O)[C@H](CC(C)C)NC(=O)[C@H](CC(C)C)NC(=O)CNC(=O)[C@H](C)NC(=O)[C@H](C)NC(=O)[C@H](CCCNC(=N)N)NC(=O)CNC(=O)[C@@H](NC(=O)[C@@H](NC(=O)[C@H](Cc1c[nH]cn1)NC(=O)[C@H](Cc1ccc(O)cc1)NC(=O)[C@H](CCCNC(=N)N)NC(=O)[C@@H]1CCCN1C(=O)[C@H](CO)NC(=O)[C@H](C)NC(=O)[C@@H](NC(=O)[C@H](Cc1c[nH]cn1)NC(=O)[C@H](CCCCN)NC(=O)[C@H](Cc1ccc(O)cc1)NC(=O)[C@@H](N)Cc1c[nH]c2ccccc12)[C@@H](C)O)[C@@H](C)O)C(C)C)C(=O)NCC(=O)N[C@@H](CC(C)C)C(=O)O` [pGPR8L (1-23), Trp-Tyr-Lys-His-Val-Ala-Ser -Pro-Arg-Tyr-His-Thr-Val-Gly-Arg-Ala-Ala-Gly-Leu-Leu-Met-Gly-Leu], the “promoting activity of GTPγS binding” value on TGR26 [2] was “GTPγS binding of the TGR26 expressing CHO cells was promoted depending on the concentration”. Besides, at TGR26 [3], the “inhibiting activity of intracellular cAMP production” value (shortened to “inhibiting activity”) is on record as “intracellular cAMP production of the TGR26 expressing CHO cells was inhibited depending on the concentration”.

For “SEQ ID NO: 57: porcine homologue of hGPR8L (1-30), ligand peptide to GPR8 deduced from SEQ ID NO: 55 (WYKHTASPRYHTVGRAAGLLMGLRRSPYMW; Porcine)”, the “inhibition for the specific binding of [125I-Tyr10]-hGPR8L (1-23)” value (shortened to “inhibition for the specific binding”) in the assay with TGR26 [1] is on record as “can also be confirmed”. In addition, the “promoting activity of GTPγS binding” value with TGR26 [2] was “GTPγS binding of the TGR26 expressing CHO cells was promoted depending on the concentration”. For the same molecule, in the assay with TGR26 [3], the “inhibiting activity” value was “intracellular cAMP production of the TGR26 expressing CHO cells was inhibited depending on the concentration”.

In the case of “SEQ ID NO: 74: rat homologue of hGPR8L (1-30), ligand peptide to GPR8 deduced from SEQ ID NO: 72 (WYKHVASPRYHTVGRASGLLMGLRRSPYLW; Rat)”, the “inhibition for the specific binding” value with TGR26 [1] is listed as “can also be confirmed”. Further, the “promoting activity of GTPγS binding” value with TGR26 [2] is recorded as “GTPγS binding of the TGR26 expressing CHO cells was promoted depending on the concentration”. Also, the “inhibiting activity” value in the assay with TGR26 [3] was “intracellular cAMP production of the TGR26 expressing CHO cells was inhibited depending on the concentration”.

Consider “SEQ ID NO: 92: mouse homologue of hGPR8L (1-30), ligand peptide to GPR8 deduced from SEQ ID NO: 90 (WYKHVASPRYHTVGRASGLLMGLRRSPYQW; Mouse)”, for which the “inhibition for the specific binding” value with TGR26 [1] is reported as “can also be confirmed”. Moreover, in the assay with TGR26 [2], the “promoting activity of GTPγS binding” value was “GTPγS binding of the TGR26 expressing CHO cells was promoted depending on the concentration”. In addition, the “inhibiting activity” value with TGR26 [3] is recorded as “intracellular cAMP production of the TGR26 expressing CHO cells was inhibited depending on the concentration”.

For “Trp-Tyr-Lys-His-Val-Ala-Ser -Pro-Arg-Tyr-His-Thr-Val-Gly-Arg-Ala-Ala-Gly-Leu-Leu-Met-Gly-Leu [SEQ ID NO: 73]”, in the assay with TGR26 [1], the “inhibition for the specific binding” value is on record as “can also be confirmed”. Moreover, the “promoting activity of GTPγS binding” value with TGR26 [2] was “GTPγS binding of the TGR26 expressing CHO cells was promoted depending on the concentration”. Moreover, the “inhibiting activity” value with TGR26 [3] is listed as “intracellular cAMP production of the TGR26 expressing CHO cells was inhibited depending on the concentration”.

The values are drawn from patent publication US20040029178A1, “Novel g protein-coupled receptor proteins and dnas thereof” (priority 2000, published 2004).
